The source of these data is patent US7247438.

This assay has as its target T1, purified, recombinant Yama/caspase-3, P42574.
T1 chain: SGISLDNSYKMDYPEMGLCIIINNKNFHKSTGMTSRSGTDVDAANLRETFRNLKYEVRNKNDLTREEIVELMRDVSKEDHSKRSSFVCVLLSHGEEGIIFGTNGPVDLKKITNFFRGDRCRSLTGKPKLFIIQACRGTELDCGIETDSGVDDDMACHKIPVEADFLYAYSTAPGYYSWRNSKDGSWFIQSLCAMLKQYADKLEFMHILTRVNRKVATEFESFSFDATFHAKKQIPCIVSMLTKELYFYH
Kind of assay: recombinant enzyme labelled with biotinylated inhibitor, blot. The note with it: remark: other sources report otherwise.

B1: biotin-YVADamk (peptide)
peptide: YVAD
modifications: not checked
For the molecule B1, the fold more enzyme needed for detection turned out to be 100 times.
